We go through two molecules from PMC4772808, “Insights from the reconstitution of the divergent outer kinetochore of Drosophila melanogaster” (Open Biology, 2016).

Holding throughout (assay): AUC; sedimentation velocity, 42 000 rpm, 20°C, 20 mM Tris pH 8, 0.15 M NaCl, 1 mM TCEP, absorbance at 280 nm, c(S) analysis with SEDFIT
Common to all, as to settings: both partners purified

Experiment [1] deals with T1, DmMis12a complex (Mis12:Nnf1a:Kmn1) (Drosophila melanogaster, UniProt Q9VS01 1-181; Q7JZC9 1-194; Q9VYX4 1-183).
T1 construct: Mis12 subunit of the Drosophila melanogaster Mis12 complex; Nnf1a (Nnf1R-1), Drosophila melanogaster; Kmn1, the Nsl1 orthologue of Drosophila melanogaster; source: E. coli BL21(DE3) Rosetta, co-expressed (pST44), purified (His-Trap, ResourceQ, Superdex 200); copies: 1 + 1 + 1
T1 sequence (looked up) 1: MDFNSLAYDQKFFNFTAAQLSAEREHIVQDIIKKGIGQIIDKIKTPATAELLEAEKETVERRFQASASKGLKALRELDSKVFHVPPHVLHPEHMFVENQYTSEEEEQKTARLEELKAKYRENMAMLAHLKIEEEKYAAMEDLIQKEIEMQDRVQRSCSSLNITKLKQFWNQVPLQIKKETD
T1 sequence (looked up) 2: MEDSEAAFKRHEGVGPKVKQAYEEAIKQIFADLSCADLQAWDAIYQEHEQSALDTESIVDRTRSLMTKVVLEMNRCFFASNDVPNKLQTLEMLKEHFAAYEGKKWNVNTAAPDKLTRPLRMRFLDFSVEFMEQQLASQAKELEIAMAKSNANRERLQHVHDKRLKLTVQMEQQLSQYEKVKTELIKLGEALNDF
T1 sequence (looked up) 3: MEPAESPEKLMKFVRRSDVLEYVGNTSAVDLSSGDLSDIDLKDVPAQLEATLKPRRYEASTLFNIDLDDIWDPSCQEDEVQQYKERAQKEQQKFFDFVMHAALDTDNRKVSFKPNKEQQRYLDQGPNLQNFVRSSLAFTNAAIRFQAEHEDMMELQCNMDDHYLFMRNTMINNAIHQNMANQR

The target of experiment [2] is T2, DmMis12b complex (Mis12:Nnf1b:Kmn1) (Drosophila melanogaster, UniProt Q9VS01 1-181; Q8IPW3 1-204; Q9VYX4 1-183).
T2 construct: Mis12 subunit of the Drosophila melanogaster Mis12 complex; Nnf1b (Nnf1R-2), Drosophila melanogaster; Kmn1, the Nsl1 orthologue of Drosophila melanogaster; source: E. coli BL21(DE3) Rosetta, co-expressed (pST44), purified (His-Trap, ResourceQ, Superdex 200); copies: 1 + 1 + 1
T2 sequence (looked up) 1: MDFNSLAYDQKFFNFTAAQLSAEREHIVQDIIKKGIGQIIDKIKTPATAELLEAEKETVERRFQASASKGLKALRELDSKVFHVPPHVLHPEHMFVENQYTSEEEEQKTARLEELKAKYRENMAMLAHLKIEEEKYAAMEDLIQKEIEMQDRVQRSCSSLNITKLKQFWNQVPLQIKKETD
T2 sequence (looked up) 2: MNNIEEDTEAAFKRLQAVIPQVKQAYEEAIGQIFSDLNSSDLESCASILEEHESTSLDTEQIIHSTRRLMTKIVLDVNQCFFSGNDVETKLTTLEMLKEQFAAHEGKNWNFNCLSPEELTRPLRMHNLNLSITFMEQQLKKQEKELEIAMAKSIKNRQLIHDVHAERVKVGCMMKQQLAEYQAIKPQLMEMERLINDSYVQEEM
T2 sequence (looked up) 3: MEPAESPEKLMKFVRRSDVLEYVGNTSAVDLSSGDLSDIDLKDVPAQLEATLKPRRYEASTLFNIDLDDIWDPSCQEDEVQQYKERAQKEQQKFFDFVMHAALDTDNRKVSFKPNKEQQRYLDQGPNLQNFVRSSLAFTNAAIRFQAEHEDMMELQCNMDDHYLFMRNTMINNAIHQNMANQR

Experiment [3] has as its target T3, Mis12a:Spc105R^1707–1960 complex (Drosophila melanogaster, UniProt Q9VS01 1-181; Q7JZC9 1-194; Q9VYX4 1-183; M9PIC9 1707-1960).
T3 construct: Mis12 subunit of the Drosophila melanogaster Mis12 complex; Nnf1a (Nnf1R-1), Drosophila melanogaster; Kmn1, the Nsl1 orthologue of Drosophila melanogaster; source: E. coli BL21(DE3) Rosetta, co-expressed (pST44), purified (His-Trap, ResourceQ, Superdex 200); copies: 1 + 1 + 1 + 1
T3 sequence (looked up) 1: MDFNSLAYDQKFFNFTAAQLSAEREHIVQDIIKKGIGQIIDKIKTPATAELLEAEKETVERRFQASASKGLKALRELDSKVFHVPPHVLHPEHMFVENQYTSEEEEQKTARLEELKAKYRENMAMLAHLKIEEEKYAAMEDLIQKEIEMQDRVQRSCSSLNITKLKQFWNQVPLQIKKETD
T3 sequence (looked up) 2: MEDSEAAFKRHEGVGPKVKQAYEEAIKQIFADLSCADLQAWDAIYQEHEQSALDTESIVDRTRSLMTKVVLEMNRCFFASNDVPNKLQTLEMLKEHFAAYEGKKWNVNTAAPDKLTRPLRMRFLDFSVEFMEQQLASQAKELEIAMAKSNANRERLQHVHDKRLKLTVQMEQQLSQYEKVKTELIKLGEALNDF
T3 sequence (looked up) 3: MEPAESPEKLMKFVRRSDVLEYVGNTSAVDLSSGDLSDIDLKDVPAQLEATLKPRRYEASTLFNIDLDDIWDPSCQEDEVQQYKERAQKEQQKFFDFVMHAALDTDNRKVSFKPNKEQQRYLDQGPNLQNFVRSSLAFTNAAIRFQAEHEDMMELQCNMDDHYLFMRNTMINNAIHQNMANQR
T3 sequence (looked up) 4: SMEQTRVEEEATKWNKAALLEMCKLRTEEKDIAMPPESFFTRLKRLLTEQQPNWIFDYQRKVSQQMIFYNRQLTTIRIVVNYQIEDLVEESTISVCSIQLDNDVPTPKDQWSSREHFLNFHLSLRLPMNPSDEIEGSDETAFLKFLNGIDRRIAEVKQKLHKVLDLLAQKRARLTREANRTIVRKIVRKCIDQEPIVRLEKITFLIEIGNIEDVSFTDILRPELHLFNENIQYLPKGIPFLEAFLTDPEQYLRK

In general, stoichiometry N refers to the number of molecules, sites or subunits per partner or assembly.

B1: Spc105R^1707–1960 (domain or fragment, Drosophila melanogaster, UniProt M9PIC9 1707-1960, looked up)
chain: SMEQTRVEEEATKWNKAALLEMCKLRTEEKDIAMPPESFFTRLKRLLTEQQPNWIFDYQRKVSQQMIFYNRQLTTIRIVVNYQIEDLVEESTISVCSIQLDNDVPTPKDQWSSREHFLNFHLSLRLPMNPSDEIEGSDETAFLKFLNGIDRRIAEVKQKLHKVLDLLAQKRARLTREANRTIVRKIVRKCIDQEPIVRLEKITFLIEIGNIEDVSFTDILRPELHLFNENIQYLPKGIPFLEAFLTDPEQYLRK
notes: Soluble only when co-expressed with the Mis12a or Mis12b complex
As for B1, the “stoichiometry N” value in experiment [1] and in experiment [2] was 1 in each case.

B2: DmCENP-C^1–105 (domain or fragment, Drosophila melanogaster, UniProt Q9VHP9 1-105, looked up)
chain: MSKPQNNDTLELDDILSQPVKDKERFAAFMMRKLAENKPAQNDNLFGNFKLDFDLDFEVPLIKKSQAKPKSKLPEVQPLGELVSKNSAATEKVNEPPVDQAPNEN
notes: source: E. coli BL21(DE3) Rosetta, purified (His-Trap, ResourceQ, Superdex 200)
For the molecule B2, the “stoichiometry N” value in experiment [3] and in experiment [1] was 1 throughout.
